Where no end group is shown, it is not given here.
Experiments:
Assay in all cases: ELISA
[1] = molecular target: HLA-DR molecule, DRB1*0701 (human)
[2] = molecular target: HLA-DR molecule, DRB1*0101 (human)
[3] = molecular target: HLA-DR molecule, DRB1*1501 (human)

| Binder | IC50 [1] [nM] | IC50 [2] [nM] | IC50 [3] [nM] |
| --- | --- | --- | --- |
| GKQLYNVEATSYALLALLQLKDFD (also: amino and carboxyl ends blocked) [C3d_(223–246)] | < 2000 | < 2000 | 85100 |
| QATFMVFQALAQYQKDAP (also: amino and carboxyl ends blocked) [C3d_(269–286)] | 2450 | 5630 | > 100000 |
| GKQLYNVEATSYALL (also: amino and carboxyl ends blocked) [C3d_(223–237) wild type peptide (sequence overlapping the P28 peptide segment and C3d_(223–246))] | – | 365 | – |
